In patent publication US8217140B2, “Peptides capable of binding to serum proteins and compounds, constructs and polypeptides comprising the same” (Ablynx N.V., priority 2008, dated 2012):
Like-named read-outs stand apart in the source and are kept apart here.

Key:
[1] = biological target: T1, human serum albumin (Homo sapiens, UniProt P02768); test: Phage ELISA on HSA-coated plates; type: binding; settings: phage clones; near-infrared fluorescence intensity vs phage dilution, FIG. 2
Experimental: 5-fold serial dilutions of phage clones (starting from ˜5×10^11 phage) were added to 96-well Nunc Maxisorp plates coated with human serum albumin (2 μg/ml in PBS, overnight at 4° C.; plates were blocked with Superblock T20 (Pierce) for 1 h at room temperature). The microtiter plate was washed with wash buffer (PBS, 0.05% Tween 20) and bound phages were detected with anti-M13 and goat-anti mouse IRDye conjugate (610-130-121, Rockland). The amount of IRDye bound was measured on Odyssey (LI-COR Biosciences). The dilution of phage was plotted against measured near-infrared fluorescence intensity (FIG. 2).

[2] = biological target: T1, human serum albumin; test: Co-crystal structure and in silico modelling of peptide with human serum albumin; settings: crystal structure and modeling data
Experimental: The crystal structure was determined as follows: the purified proteins were used in crystallization trials employing both, a standard screen of approximately 1200 different conditions, as well as crystallization conditions identified using literature data. Conditions initially obtained have been optimized using standard strategies, systematically varying parameters critically influencing crystallization, such as temperature, protein concentration, drop ratio, etc. These conditions were also refined by systematically varying pH or precipitant concentrations. Crystals were obtained via the method of co-crystallization.
Crystals have been flash-frozen and measured at a temperature of 100K. The X-ray diffraction have been collected at the SWISS LIGHT SOURCE (SLS, Villigen, Switzerland) using cryogenic conditions. Data were processed using the programs XDS and XSCALE. The phase information necessary to determine and analyze the structure was obtained by molecular replacement. Subsequent model building and refinement was performed with the software packages CCP4 and COOT. The peptide parameterization was carried out with the program […].
Modeling of the interaction was performed using ICM-Pro (Molsoft) and Discovery Studio (Accelrys) with a force-field that is based on the parameters as described in Momany et al. (Momany et al. J. Phys. Chem. 1975, 79, 2361-2381)

[3] = Pharmacokinetic profile in male cynomolgus monkeys: monovalent Nanobody 2D3 constructs; type: in vivo, Cynomolgus monkey; settings: for exposure higher and total body clearance (CL) lower than after 2D3: on average, relative to control article 2D3; for AUCinf / C0: serum
Experimental: The pharmacokinetic profile of this 2D3-9GS-EXP56E4 Nanobody construct (“construct” or “test item” hereafter) was analysed in male cynomolgus monkeys of approximately 3 to 4 years old and was compared to the 2D3 control (“control” or “negative control” hereafter). The construct and the control were each injected in three monkeys. Both the construct and the control were administered at a dose of 2 mg/kg via intravenous infusion. Blood samples were taken at predose, 5 min, 20 min, 1 h, 2 h, 4 h, 8 h, and 16 h after administration and at test days 2, 3, 5, 7, 9, 12, 15, 18, 21, 24, 27, 30, 33, 36, 39, 42, 45, 48, 51, 54, and 57 after the start of the infusion. In order to obtain at least 0.25 mL serum per animal per sampling time, a sufficient volume of whole blood was withdrawn per sampling time and the serum was isolated after 1 h of incubation at 37° C. The serum samples were stored at −80° C.
Serum samples were tested for serum levels of construct and the control, respectively, using the following ELISA assay.
96-well microtiter plates (Maxisorp, Nunc, Wiesbaden, Germany) were coated for 1 hour at 37° C. with Recombinant Human ErbB2/Fc Chimera, C F (R&D Systems, Minneapolis) in PBS at 3 μg/mL for the negative control and 4.5 μg/mL for the test item. Wells were aspirated and blocked for 30 minutes at room temperature (RT) with SuperBlock®T20 PBS (Pierce, Rockford, Ill.). After this blocking step, wells were washed with PBS-0.05% Tween20.
Preparations for the standards, QC samples and dilutions of the test samples were performed in a non-coated (polypropylene) plate.
Standard curve and QC-samples: Solutions at the required concentrations were prepared in PBS 0.1% casein and spiked into 100% monkey serum. To prepare standards and QC samples, a 1/10 dilution of the pure monkey serum dilutions was made in PBS-0.1% casein.
Test samples: Dilution factors for the test samples were estimated, and varied from 1/10 to 1/500. Samples were diluted 1/10 in PBS 0.1% casein in a first step, and if needed, further dilution was done in PBS 0.1% casein containing 10% monkey serum. These sample dilutions were further serially diluted 1/5 in PBS 0.1% casein with 10% monkey serum over 2 wells.
Standards, QC samples and the 1/5 dilutions of the test samples were transferred onto the coated plate and incubated for 1 hour at RT. Afterwards the plates were washed and rabbit polyclonal anti-VHH K1, purified against protein A and Her2/Fc depleted, was added at 1 μg/mL in PBS 0.1% casein, and incubated for 1 hour at RT. After washing a 1/2000 dilution in PBS 0.1% casein of horse radish peroxidase labelled goat anti-rabbit (Dakocytomation, Denmark) was added to the plate and incubated for 30 minutes at RT. This enzyme catalyzes a chemical reaction with the substrate sTMB (3,3′,5,5′-tetramethylbenzidine, SDT reagents, Brussels, Belgium), which results in a colorimetric change. After stopping this reaction after 15 minutes using HCl (1N), the intensity of the colour was measured by a spectrophotometer, which determines the optical density of the reaction product, using a 450 nm wavelength of light.
The concentration of the construct and the control in the serum samples was determined towards a standard curve of the construct and the control, respectively. The concentration determination was performed using the sigmoidal dose-response curve with variable slope. All serum samples were tested minimally in duplicate. Average values were reported. For each sample standard deviations and precision between the different results was calculated.
For blood sampling and processing, the pharmacokinetic profile of the constructs (2D3-9GS-EXP56E4 and 2D3-9GS-EXP59C2) and the negative control 2D3 were determined in male Cynomolgus monkeys of approximately 3 to 4 years old and was compared to that of the control (2D3). The constructs and the control were administered to three monkeys at a dose of 2 mg/kg by intravenous bolus injection. […]

[4] = biological target: Cynomolgus monkey serum albumin (Macaca fascicularis, UniProt A2V9Z4); test: Surface plasmon resonance (BIAcore 3000) of 2D3-9GS-56E4 and 2D3-9GS-59C2, Example 11; type: binding; settings: for ka: untagged constructs
Experimental: (§1) The binding was determined in BIAcore™ 3000, by injecting concentration series of the fusion proteins ranging from 2 μM to 200 nM on a CM5 chip coated with ˜3000 RU HSA or CSA. Coating of the chip (CM5) was performed by amine coupling using NHS/EDC for activation and ethanolamine for deactivation (Biacore amine coupling kit). HBS-EP was used as flow buffer at a rate of 45 μl min-1. 90 μl of sample was injected for 120 s.

[5] = biological target: T1, human serum albumin; test: as above; type: binding
Experimental: as §1

[6] = biological target: T1, human serum albumin; test: Surface plasmon resonance (BIAcore 3000) of 2D3 fusion proteins, Example 6; type: binding
Experimental: (§2) The binding of the resulting 2D3-17D12 and 2D3-56H5 fusion proteins to human serum albumin was determined using surface plasmon resonance analysis. For this purpose, the fusion proteins were expressed in E. coli TG1 cells. The fusion proteins were purified by IMAC/SEC and binding to HSA was assessed in BIAcore™ 3000, by injecting 1 μM and 5 μM of the 2D3-17D12 and 2D3-56H5 fusion proteins on a CM5 chip coated with ˜7000 RU human serum albumin (Sigma, 99% pure) and 2460 RU an irrelevant protein antigen (reference). Coating of the chip (CM5) was performed by amine coupling using NHS/EDC for activation and ethanolamine for deactivation (Biacore amine coupling kit). HBS-EP was used as flow buffer at a rate of […]. 20 μl of sample was injected for 120 s. The 2D3 Nanobody was injected as control.

[7] = test system: irrelevant protein antigen; test: Surface plasmon resonance control on chip coated with irrelevant protein, Example 6; type: binding; settings: 5 μM injected; CM5 chip coated with irrelevant protein (2400RU)
Experimental: as §2

[8] = i.v. bolus 2 mg/kg, male Cynomolgus monkey, mean n = 3

Sequence of Cynomolgus monkey serum albumin (A2V9Z4 25-608): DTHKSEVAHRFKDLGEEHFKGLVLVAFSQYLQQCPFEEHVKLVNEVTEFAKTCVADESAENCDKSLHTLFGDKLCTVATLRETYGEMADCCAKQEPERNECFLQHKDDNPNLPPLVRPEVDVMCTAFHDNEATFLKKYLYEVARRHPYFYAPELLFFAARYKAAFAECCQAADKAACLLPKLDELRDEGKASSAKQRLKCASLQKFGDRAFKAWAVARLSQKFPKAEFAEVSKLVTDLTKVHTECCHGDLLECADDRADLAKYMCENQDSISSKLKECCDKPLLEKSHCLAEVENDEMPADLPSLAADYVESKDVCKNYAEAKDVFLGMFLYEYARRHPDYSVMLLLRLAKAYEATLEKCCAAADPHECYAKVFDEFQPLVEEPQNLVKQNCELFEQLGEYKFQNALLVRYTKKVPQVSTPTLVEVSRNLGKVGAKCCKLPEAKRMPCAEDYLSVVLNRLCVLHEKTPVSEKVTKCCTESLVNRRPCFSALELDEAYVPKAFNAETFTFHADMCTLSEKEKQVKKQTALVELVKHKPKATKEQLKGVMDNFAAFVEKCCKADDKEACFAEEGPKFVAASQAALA

Molecule	binding to HSA compared to the amino acid sequence of SEQ ID NO: 1 [1]	koff (dissociation rate constant) [4]	ka [4]	Vdss [3, 8]	exposure higher and total body clearance (CL) lower than after 2D3 [3]	mean Vdss lower compared to 2D3 ([3]; relative to 2D3)	AUCinf [3, 8]	C0 [3, 8]	also measured
AAARYWDYDVFGGGTPVGGAAA [peptide of SEQ ID NO: 143, based on EXP56E4 with an additional N-terminal alanine and three C-terminal alanine residues]									binding site on human serum albumin [2]: binds in a deep subpocket of domain I of human serum albumin
2D3-9GS-EXP56E4: SEQ ID NO: 142, fusion of peptide 56E4 and Nanobody 2D3 via 9GS linker (protein) EVQLVESGGSLVQPGGSLRLSCAASGFTFDDYAMSWVRQVPGKGLEWVSSINWSGTHTDYADSVKGRFTISRNNANNTLYLQMNSLKSEDTAVYYCAKNWRDAGTTWFEKSGSAGQGTQVTVSSGGGGSGGGSRYWDYDVFGGGTPVGG		0.00847 s⁻¹	1.71E+04 1/ms	0.0503 L/kg	23 fold	2.3 fold	458 µg·h/mL	66.8 µg/mL	Terminal Half-life ([3]; cynomolgus monkeys, 2 mg/kg intravenous infusion, Table IV): 8.54 ± 0.79 h; t½ (terminal half-life) ([3]; i.v. bolus 2 mg/kg, male Cynomolgus monkey, mean n = 3, 2 mg/kg): 8.54 h; terminal half-life (t½) increase relative to 2D3 ([3]; relative to 2D3): 4.2 fold; Kd ([5]; dissociation rate): 0.00497 s⁻¹; Kd ([5]; read-out: KD): 342 nM; ka ([5]; untagged constructs): 1.04E+04 1/ms
2D3-9GS-59C2: SEQ ID NO: 164, 59C2 without the two N-terminal alanines fused via 9GS linker to C-terminus of 2D3 (protein) EVQLVESGGSLVQPGGSLRLSCAASGFTFDDYAMSWVRQVPGKGLEWVSSINWSGTHTDYADSVKGRFTISRNNANNTLYLQMNSLKSEDTAVYYCAKNWRDAGTTWFEKSGSAGQGTQVTVSSGGGGSGGGSRDWDFDVFGGGTPVGG		0.00247 s⁻¹	8.98E+03 1/ms	0.0455 L/kg	77 fold	2.6 fold	1540 µg·h/mL	62.5 µg/mL	
2D3-56H5: SEQ ID NO: 139, fusion of Nanobody 2D3 and peptide 56H5 with Myc-His tag (protein, Myc-His tag; fusion protein) EVQLVESGGSLVQPGGSLRLSCAASGFTFDDYAMSWVRQVPGKGLEWVSSINWSGTHTDYADSVKGRFTISRNNANNTLYLQMNSLKSEDTAVYYCAKNWRDAGTTWFEKSGSAGQGTQVTVSSGGGGSGGGSAAAFYDDYDVFGGGTPAGGAAAEQKLISEEDLNGAAHHHHHH									binding to HSA (surface plasmon resonance, FIG. 5) ([6]; 1 μM and 5 μM injected, comparison with 2D3-17D12 fusion protein): improved binding; ka ([6]; CM5 chip ~7000 RU HSA): 7570 M⁻¹ s⁻¹; kd ([6]; CM5 chip ~7000 RU HSA): 0.0093 s⁻¹; specific binding to irrelevant protein [7]: no specific binding was detected

More lines, main results first:

binding to HSA compared to the amino acid sequence of SEQ ID NO: 1 [1]	koff (dissociation rate constant) [4]	ka [4]	Molecule	Vdss [3, 8]	exposure higher and total body clearance (CL) lower than after 2D3 [3]	mean Vdss lower compared to 2D3 ([3]; relative to 2D3)	AUCinf [3, 8]	C0 [3, 8]	also measured
stronger binding			AAPYRDYDVFGGGTPRGE [56 F2]						
stronger binding			AAYYYDYDVFGGGTPGGE [56 E2]						
